Test results from patent US20160264664A1 (Ablynx, published 2016).

How the values were obtained:
[1] = biological target: T1, human P2X4 (human, UniProt Q99571 1-388); experiment: flow cytometry, Nanobody pre-incubated with anti-Myc-FITC
T1 construct: whole, on cells; also called hP2X4
T1 sequence (looked up): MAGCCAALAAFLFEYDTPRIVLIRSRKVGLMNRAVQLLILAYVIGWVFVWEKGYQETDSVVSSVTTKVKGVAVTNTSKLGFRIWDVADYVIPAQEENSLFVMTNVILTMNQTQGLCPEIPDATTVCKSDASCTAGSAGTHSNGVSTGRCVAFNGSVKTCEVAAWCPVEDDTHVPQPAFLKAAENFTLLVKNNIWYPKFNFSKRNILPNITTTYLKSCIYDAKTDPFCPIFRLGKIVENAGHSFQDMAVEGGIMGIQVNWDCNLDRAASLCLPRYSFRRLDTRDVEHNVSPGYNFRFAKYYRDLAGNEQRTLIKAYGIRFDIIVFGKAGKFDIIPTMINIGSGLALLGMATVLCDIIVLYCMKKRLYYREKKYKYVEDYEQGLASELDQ

[2] = biological target: T2, human P2X7 (human, UniProt Q99572 1-595); experiment: as above
T2 construct: on transfected Hek293 cells; also called hP2X7
T2 sequence: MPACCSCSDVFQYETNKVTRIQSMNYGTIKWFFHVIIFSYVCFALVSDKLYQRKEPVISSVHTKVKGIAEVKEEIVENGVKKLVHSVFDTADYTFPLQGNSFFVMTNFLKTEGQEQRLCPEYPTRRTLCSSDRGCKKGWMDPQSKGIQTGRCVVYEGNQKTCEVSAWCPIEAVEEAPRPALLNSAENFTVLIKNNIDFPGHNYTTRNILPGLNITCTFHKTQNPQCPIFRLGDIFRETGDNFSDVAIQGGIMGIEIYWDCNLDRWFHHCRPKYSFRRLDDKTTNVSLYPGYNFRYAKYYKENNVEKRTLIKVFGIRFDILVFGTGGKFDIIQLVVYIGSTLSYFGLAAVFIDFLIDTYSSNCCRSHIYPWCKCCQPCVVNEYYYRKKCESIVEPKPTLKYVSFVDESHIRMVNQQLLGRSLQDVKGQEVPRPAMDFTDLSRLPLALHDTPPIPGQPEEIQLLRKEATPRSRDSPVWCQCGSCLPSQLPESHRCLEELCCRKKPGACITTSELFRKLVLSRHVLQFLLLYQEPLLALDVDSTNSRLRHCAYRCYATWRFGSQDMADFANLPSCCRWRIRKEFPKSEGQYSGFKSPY

[3] = biological target: T3, mouse P2X7 (mouse, UniProt Q9Z1M0 1-595); experiment: cell-based or functional assay
T3 sequence: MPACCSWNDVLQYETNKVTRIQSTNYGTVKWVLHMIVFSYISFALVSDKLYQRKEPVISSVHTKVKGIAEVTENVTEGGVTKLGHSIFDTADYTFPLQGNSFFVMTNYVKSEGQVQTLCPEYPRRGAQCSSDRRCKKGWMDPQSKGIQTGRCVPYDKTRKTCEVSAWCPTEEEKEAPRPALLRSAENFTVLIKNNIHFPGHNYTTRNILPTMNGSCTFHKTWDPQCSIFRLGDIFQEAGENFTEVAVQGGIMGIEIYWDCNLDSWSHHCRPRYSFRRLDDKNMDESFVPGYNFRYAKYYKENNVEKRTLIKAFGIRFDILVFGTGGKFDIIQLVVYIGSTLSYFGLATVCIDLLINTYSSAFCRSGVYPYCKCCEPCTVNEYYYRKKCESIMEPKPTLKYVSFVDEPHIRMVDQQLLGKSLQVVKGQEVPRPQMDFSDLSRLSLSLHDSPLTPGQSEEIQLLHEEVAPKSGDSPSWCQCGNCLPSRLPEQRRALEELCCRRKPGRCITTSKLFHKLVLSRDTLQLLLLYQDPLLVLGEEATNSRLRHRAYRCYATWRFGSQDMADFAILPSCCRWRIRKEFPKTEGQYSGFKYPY

[4] = biological target: T3, mouse P2X7; experiment: phage ELISA, mP2X7-CHO vs control CHO cells
Experimental: (§1) Sub-confluent cells were rinsed with PBS and fixed using 4% paraformaldehyde in PBS for 10 minutes at RT. Fixed cells were washed three times with PBS, and blocked with 2% BSA in PBS for 2 hours. Following blocking, 10-fold diluted culture supernatant containing phage was added and incubated for 1 hour. Cell-bound phage was detected via mouse anti-M13-HRP-conjugate (GE Healthcare, Cat nr. E2886). Rat mAb Hano43 was used as positive control.

[5] = biological target: T4, mouse P2X7 mutant R151A (mouse, UniProt Q9Z1M0 1-595); experiment: flow cytometry, 1 µM Nanobody on transiently transfected Hek293 cells, normalised to Hano43 staining
T4 construct: transiently transfected Hek293 cells
T4 sequence: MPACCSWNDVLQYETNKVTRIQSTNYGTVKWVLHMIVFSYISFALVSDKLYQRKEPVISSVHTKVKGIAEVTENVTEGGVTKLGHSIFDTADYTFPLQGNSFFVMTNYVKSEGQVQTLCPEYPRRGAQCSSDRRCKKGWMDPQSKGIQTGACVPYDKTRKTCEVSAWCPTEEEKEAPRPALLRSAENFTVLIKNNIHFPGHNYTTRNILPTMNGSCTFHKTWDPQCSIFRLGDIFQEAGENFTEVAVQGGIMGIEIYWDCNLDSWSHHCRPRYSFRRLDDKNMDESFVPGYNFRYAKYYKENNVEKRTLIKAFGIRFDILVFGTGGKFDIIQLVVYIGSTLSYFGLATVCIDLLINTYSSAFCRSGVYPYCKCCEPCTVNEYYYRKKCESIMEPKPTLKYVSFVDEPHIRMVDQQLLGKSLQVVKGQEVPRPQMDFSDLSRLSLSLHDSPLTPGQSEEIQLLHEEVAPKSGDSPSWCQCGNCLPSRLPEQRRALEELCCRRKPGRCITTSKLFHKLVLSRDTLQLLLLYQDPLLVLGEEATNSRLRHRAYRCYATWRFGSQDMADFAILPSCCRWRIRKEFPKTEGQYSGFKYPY
Experimental: For flow cytometric assays, detection of Nanobodies was performed via anti-Myc and subsequent goat anti-mouse-PE conjugate, while an estimation of P2X7 expression densities was obtained via staining with rat monoclonal Hano43 followed by secondary anti-rat-PE conjugate.

[6] = biological target: T3, mouse P2X7; experiment: phage ELISA on fixed mP2X7-CHO vs untransfected CHO cells;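 note: phage culture supernatant diluted 10-fold, applied for 1 h to paraformaldehyde-fixed, BSA-blocked cells in 96-well plates, with bound phage read via HRP-linked anti-M13 antibody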
Experimental: as §1

[7] = biological target: T3, mouse P2X7; experiment: flow cytometry, periplasmic extract pre-incubated with anti-myc-FITC, on mP2X7-Hek293 cells;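 note: periplasmic extract diluted 10-fold and premixed 45 min at 4 °C with FITC anti-myc antibody, giving pseudo-bivalent Nanobodies, before binding to the cells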
Experimental: Ten-fold diluted PE were pre-incubation with 0.5 μg anti-myc FITC-conjugated antibodies (AbD Serotec, cat no. MCA2200F) (creating pseudo-bivalent Nanobodies in order to increase binding strength) in 0.1 ml PBS/10% FCS for 45 minutes at 4° C. […] Alternatively, sequential staining of 10-fold diluted PE with anti-myc FITC-conjugated antibodies was done after incubation with the cells.

[8] = biological target: T3, mouse P2X7; experiment: phage ELISA on fixed mP2X7-CHO vs untransfected CHO cells (minimally 2-fold)
Experimental: as §1

[9] = biological target: T3, mouse P2X7; experiment: phage ELISA on fixed mP2X7-CHO vs untransfected CHO cells; phage ELISA, phage-displayed Nanobody, Cho P2X7 vs wt signal ratio
Experimental: as §1

[10] = biological target: T3, mouse P2X7; experiment: Table A-1 'P2X7 function'; screening on mP2X7-expressing cells

| Binder | binding result [1] | binding result [2] | binding result [8] | also measured |
| --- | --- | --- | --- | --- |
| P2X7PMP8G12 (VHH, family 5, 3; on phage or c-myc/His6-tagged in assays; also called 8012) VHH: KVQLVESGGGLVQAGGSLRLSCAASGSFFRVNNMAWYRQGPGKQRELVADITRGDRTNYADSVNGRFTISRDNVRNTVYLQMNGLKPEDTAVYYCYATIELGVLEPRDYWGQGTQVTVSS | no binding (tested: 147 nM) | no binding (tested: 147 nM) |  | ATP IC50 by 2 uM NB (head prints 'mM'; ligand titration at fixed Nanobody, CD62L shedding, Yac-1 cells) [3]: 0.29 mM; IC50 (nM) against 20 uM NAD (CD62L shedding, Yac-1 cells) [3]: 82 nM; IC50 (nM) against 100 uM ATP (CD62L shedding, Yac-1 cells) [3]: 55 nM; absorption ratio (ELISA) [4]: 36 ratio; reduction of binding against WT mP2X7 [5]: > 90%; Fold Cho P2X7/wt (phage ELISA) [6]: 36 fold; MFI FACS (pre-Myc incubation) [7]: 166 MFI |
| P2X7PMP13E9 (VHH, family 22; on phage or c-myc/His6-tagged in assays) VHH: EVQLVESGGGLVQPGESLRLSCTASRFDLDYYDIAWFRQAPGKEREGVSCSFTNDGSTYYADSVKGRFTMSRNNDHRTVYLQMTSLQPEDTAVYTCAVGPLTRRRQCVPGDFSMDFWGEGTLVTVSS |  |  | binds |  |
| P2X7PMP6B7 (VHH, family 16; on phage or c-myc/His6-tagged in assays) VHH: EVQLVESGGGLVQAGGSLRLSCVVSGRTFSAMGWFRQAPGKEREFVATVGWNPMNSYYGDSVKGRFTIFRDNAKNTVYLQMNSLKPEDTAVYYCAGSGSLLDVTSEAVYTDWGQGTQVTVSS | no binding (tested: 147 nM) | no binding (tested: 147 nM) |  | reduction of binding against WT mP2X7 [5]: > 90%; Fold Cho P2X7/wt (phage ELISA) [6]: 24 fold |
| P2X7PMP13F4 (VHH, family 12; on phage or c-myc/His6-tagged in assays) VHH: EVQLVESGGGLVQSGGSLRLSCAGSGFSYYIIGWFRQAPGKEREEVSCIRVTDGSTYHTNSVKGRFTMSRDNAENTVYLQMNSLKPEDTAVYSCATECQRWAYPNRIGARGQGTQVTVSS |  |  | binds |  |
| P2X7PMP13F6 (VHH, family 20; on phage or c-myc/His6-tagged in assays) VHH: EVQLVESGGGLVQPGGSLRLSCAASGFTFSTNIMTWVRQAPGKGLEWISTINSGGGTTTYADSVRGRFTISRDNAKNMLYLQMSSLKPEDTALYYCITPRGVKGRGTQVTVSS | no binding (tested: 147 nM) | no binding (tested: 147 nM) |  | Fold Cho P2X7/wt (phage ELISA) [9]: 20 fold |
| P2X7PMP2C4 (VHH, family 1; on phage or c-myc/His6-tagged in assays) VHH: EVQLVESGGDVVQAGGSLRLSCLASGFTFDDYAIGWFRQAPGKEREGISCISSTGNVFYADSVKGRFTISSDKEKNTLYLQMNSLKPEDTAVYHCAAGHFTVDSGKVLLRTDISSWGQGTQVTVSS | no binding (tested: 147 nM) | no binding (tested: 147 nM) |  | Fold Cho P2X7/wt (phage ELISA) [9]: 4 fold |
| P2X7PMP7H6 (VHH, family 11; on phage or c-myc/His6-tagged in assays) VHH: EVQLVESGGGLVQPGGSLRLSCVVSGSMYRIDNMGWYRQAPGKQRELVATVTRGDITNYADSVKGRFTIGRDNAKNTVYLQMNSLKPADTAVYYCNIDSYIIGAGVRDYWGRGTQVTVSS | no binding (tested: 147 nM) | no binding (tested: 147 nM) |  | ATP IC50 by 2 uM NB (head prints 'mM'; ligand titration at fixed Nanobody, CD62L shedding, Yac-1 cells) [3]: 0.494 mM; IC50 (nM) against 20 uM NAD (CD62L shedding, Yac-1 cells) [3]: 208 nM; IC50 (nM) against 100 uM ATP (CD62L shedding, Yac-1 cells) [3]: 123 nM; reduction of binding against WT mP2X7 [5]: > 90%; Fold Cho P2X7/wt (phage ELISA) [6]: 23 fold |
| P2X7PMP16F5 (VHH, family 29; on phage or c-myc/His6-tagged in assays) VHH: EVQLVESGGGLVQAGGSLRLSCAASGPTTFGRYTMGWFRQAPGREREFVAAISWIGGRTYYVDVVKGRFTISRDNAKKMVYLQMNSLKPDDTAVYHCAAAFQALGSPREYDYWGQGTQVTVSS |  |  |  | binding result [10]: binds |
| P2X7PMP7E8 (VHH, family 8; on phage or c-myc/His6-tagged in assays) VHH: EVQLVESGGGLVQAGGSLRLSCAASGRTFSSSPVGWFRQAPGKERDFVATISWNGVDTHYLDSVKGRFTISRDNALNTVHLQMHILKPEDTALYYCAASTSGSAYLPYRVYQYDSWGQGTQVTVSS |  |  | binds |  |
| P2X7PMP7F5 (VHH, family 8; on phage or c-myc/His6-tagged in assays) VHH: EVQLVESGGGLVQAGGSLRLSCAASGRTFSSSPVGWFRQAPGKERDFVATISWNGVDTHYLDSVKGRFTISRDNALNTVHLQMHILKPEDTALYYCAASTSGSAYLPYRVHQYDSWGQGTQVTVSS |  |  | binds |  |
| P2X7PMP6D7 (VHH, family 7; on phage or c-myc/His6-tagged in assays) VHH: EVQLVESGGGLVQAGGSLRLSCAASGRTFSSLAMGWLRQAPGKEREFVSGISRGGTSTYYADSVKGRLTISRDNAKNTMYLQMNSLKPEDTAVYYCAGSPVLSIVLDTRGLEYWGQGTQVTVSS |  |  | binds |  |
| P2X7PMP4G4 (VHH, family 4; on phage or c-myc/His6-tagged in assays) VHH: EVQLMESGGGLVQAGGPLRLSCAASGRTVSDYGMGWFRQAPGKEREFVASINWSGTYTRYIDSVEGRFTISRDNTENTLYLQMNNLKAEDTAVYYCAYFLGPNWYSDYGRPSSYDFYGQGTQVTVSS |  |  | binds |  |
| P2X7PMP20B8 (VHH, family 4; on phage or c-myc/His6-tagged in assays) VHH: EVQLVESGGGLVQAGGSLRLSCAASGRTVSDYGMGWFRQAPGKECEFVASINWSGTYTRYIDSVEGRFTISRDNTENTLYLQMNNLKAEDTAVYYCAYFLGPNWYSDYGRPSSYDFYGQGTQVTVSS |  |  | binds |  |
| P2X7PMP19A7 (VHH, family 4; on phage or c-myc/His6-tagged in assays) VHH: KVQLVESGGGLVQAGGSLRLSCAASGRTVSDYGMGWFRQAPGKLREFVASINWSGIYTRYIDSVEGRFTISRDNTKNTLYLQMNNLRAEDTAVYYCAYFLGPNWYSNYGRPSSYDFYGQGTQVTVSS |  |  | binds |  |
| P2X7PMP19D12 (VHH, family 4; on phage or c-myc/His6-tagged in assays) VHH: EVQLVESGGGLVQAGGSLRLSCAASGRTVSDYGMGWFRQAPGKLREFVASINWSGIYTRYIDSVEGRFTISRDNTKNTLYLQMNNLKAEDTAVYYCAYFLGPNWYSNYGRPSSYGFYGQGTQVTVSS |  |  | binds |  |
